Measurements reported in the supplement of paper PMC7125110.
± gives the standard error. For some of these results: Variants at the floor of the assay were thinned out.

B1: glmS ribozyme (parent)
chain: AUAAAAGCGCCAGAACUACAGAAAUGUAGUUGACGAGGAGGAGGUUUAUCGAAUUUUCGGCGGAUGCCUCCAAA

Columns and labels:
Settings in all cases: with glucosamine-6-phosphate
[1] = variants of: B1; assay: kcat; higher = faster cleavage; RNA array
Summary of the method: (§1)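 Barcoded ribozyme variants were transcribed in situ on sequenced MiSeq chips by E. coli RNA polymerase. At 37 °C, a hybridised Cy3 probe tracked them while glucosamine-6-phosphate (40 μM to 10 mM) in HEPES/KCl/Mg(OAc)2 buffer flowed in and tiles were imaged over ~14 h. Per-tile medians of signals normalised to baseline and to non-cleaving reference variants were fit to one- or two-exponential decays, giving kobs. kcat and KM came from weighted Michaelis–Menten fits across concentrations.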

[2] = variants of: B1; assay: KM; higher = weaker cofactor use; RNA array
Summary of the method: as §1

[3] = variants of: B1; assay: self-cleavage kobs at 160 uM GlcN6P; higher = faster cleavage; RNA array
Summary of the method: as §1

[4] = variants of: B1; assay: self-cleavage kobs at 640 uM GlcN6P; higher = faster cleavage; RNA array
Summary of the method: as §1

[5] = variants of: B1; assay: self-cleavage kobs at 2500 uM GlcN6P; higher = faster cleavage; RNA array
Summary of the method: as §1

[6] = variants of: B1; assay: self-cleavage kobs at 10000 uM GlcN6P; higher = faster cleavage; RNA array
Summary of the method: as §1

[7] = variants of: B1; assay: self-cleavage kobs at 40 uM GlcN6P; higher = faster cleavage; RNA array
Summary of the method: as §1

Variant	kcat [1] [s⁻¹]	KM [2] [mM]	self-cleavage kobs at 160 uM GlcN6P [3] [s⁻¹]	self-cleavage kobs at 640 uM GlcN6P [4] [s⁻¹]	self-cleavage kobs at 2500 uM GlcN6P [5] [s⁻¹]	self-cleavage kobs at 10000 uM GlcN6P [6] [s⁻¹]	self-cleavage kobs at 40 uM GlcN6P [7] [s⁻¹]
A52U U57A	0.00351 ± 0.00067	5.9 ± 1.5	9.27e-05 ± 1.9e-05	0.000344 ± 6.8e-05	0.00123 ± 0.00025	0.00213 ± 0.00033	–
A52U U57G	5.28e-05 ± 9.7e-06	–	–	–	–	4.88e-05 ± 7.6e-06	< 1e-05
G41C G66C	1.55e-05 ± 2.4e-06	–	–	< 1e-05	–	–	< 1e-05
C16A C58A	0.000107 ± 7.2e-06	1.51 ± 0.43	–	–	7.24e-05 ± 1.4e-05	9.21e-05 ± 1.1e-05	–
U55C G66U	0.00114 ± 0.00044	–	0.000202 ± 5.7e-05	0.000297 ± 5.7e-05	0.00105 ± 0.00021	0.00102 ± 0.00022	6.69e-05 ± 1.8e-05
U57G C58U C70U	1.35e-05 ± 3.4e-06	–	< 1e-05	–	–	–	–
A53U C70A	0.000125 ± 2.5e-05	–	7.24e-05 ± 1.2e-05	0.000117 ± 1.3e-05	–	–	4.52e-05 ± 7.1e-06
U56G C58U	0.000147 ± 7.7e-06	6.31 ± 0.71	–	–	4.08e-05 ± 8.6e-06	9.06e-05 ± 8e-06	–
G41U U55C	0.000532 ± 8.1e-05	4.87 ± 1.1	3.13e-05 ± 1.4e-05	6.02e-05 ± 7.7e-06	0.000181 ± 2e-05	0.000359 ± 5.4e-05	–
A36G A64G	2.02e-05 ± 1.1e-06	–	< 1e-05	–	–	–	< 1e-05
G66C C70G	0.000116 ± 4e-06	0.49 ± 0.056	3.35e-05 ± 1.2e-05	6.38e-05 ± 8.2e-06	9.88e-05 ± 1.2e-05	0.000111 ± 1.5e-05	–
A14C A48U	5.62e-05 ± 5.4e-06	3.17 ± 1.2	–	–	–	4.26e-05 ± 7.7e-06	–
U30C G66U	< 1e-05	–	< 1e-05	–	–	–	–
C11G U56G	1.32e-05 ± 5.5e-06	–	–	< 1e-05	–	–	< 1e-05
C10U	2.6e-05 ± 1.4e-06	0.499 ± 0.19	–	1.32e-05 ± 2e-06	2.39e-05 ± 1.5e-06	2.41e-05 ± 1e-06	< 1e-05
A14G C50U	0.000229 ± 4.9e-05	7.96 ± 3	–	3.25e-05 ± 1.6e-05	5.19e-05 ± 9.6e-06	0.000128 ± 1.5e-05	–

Variant	kcat [1] [s⁻¹]	KM [2] [mM]	self-cleavage kobs at 160 uM GlcN6P [3] [s⁻¹]	self-cleavage kobs at 640 uM GlcN6P [4] [s⁻¹]	self-cleavage kobs at 2500 uM GlcN6P [5] [s⁻¹]	self-cleavage kobs at 10000 uM GlcN6P [6] [s⁻¹]	self-cleavage kobs at 40 uM GlcN6P [7] [s⁻¹]
A6C C8U G35C C58G	< 1e-05	–	–	< 1e-05	–	< 1e-05	–
A12U G13A	0.0015 ± 0.00056	–	–	8.57e-05 ± 1.1e-05	0.000208 ± 3.6e-05	0.000715 ± 9.5e-05	–
A14U U31G A39C	0.000999 ± 0.00027	4.36 ± 1.7	5.41e-05 ± 2e-05	0.000117 ± 2.6e-05	0.000373 ± 9.9e-05	0.000701 ± 0.00017	–
G59U U65G	< 1e-05	–	–	< 1e-05	–	–	–
G13C A33G	< 1e-05	–	–	< 1e-05	–	< 1e-05	–
C67U U69A	4.62e-05 ± 6.3e-06	–	–	5e-05 ± 1.8e-05	4.79e-05 ± 1.1e-05	3.56e-05 ± 1.5e-05	< 1e-05
G51A U69G	5.93e-05 ± 1.1e-05	–	4.53e-05 ± 1.5e-05	6.08e-05 ± 1.6e-05	5.96e-05 ± 1.5e-05	–	–
A14G U47C	0.00925 ± 0.0028	1.16 ± 0.52	0.00182 ± 0.00041	0.00236 ± 0.00055	0.0109 ± 0.0027	0.00833 ± 0.0014	0.000316 ± 5.1e-05
U46A A53U	0.00158 ± 0.00035	1.52 ± 0.54	0.000161 ± 3.2e-05	0.000394 ± 5.6e-05	0.000952 ± 0.00012	0.00158 ± 0.00025	5.78e-05 ± 1.1e-05
G32U G41A	0.000221 ± 1.2e-05	4.72 ± 0.59	–	2.98e-05 ± 1.1e-05	7.3e-05 ± 1.5e-05	0.00015 ± 1.4e-05	–
U31C G40U	0.000615 ± 0.00011	2.87 ± 0.92	4.05e-05 ± 1.4e-05	0.000122 ± 2.1e-05	0.000236 ± 4.1e-05	0.000515 ± 6.3e-05	–
A12C U54G	0.0218 ± 0.01	–	0.0011 ± 0.00016	0.00452 ± 0.00083	0.0102 ± 0.0016	0.0271 ± 0.0095	0.000492 ± 7.4e-05
C10A U65G	< 1e-05	–	–	< 1e-05	< 1e-05	< 1e-05	< 1e-05
G41U G66A	0.00293 ± 0.00055	1.82 ± 0.56	0.000253 ± 7.9e-05	0.000701 ± 0.00023	0.00141 ± 0.00028	0.00299 ± 0.00054	7.21e-05 ± 1.7e-05
U55A C70G	0.000118 ± 1.5e-05	–	0.000102 ± 1.2e-05	0.000148 ± 1.6e-05	0.000117 ± 1.2e-05	0.000101 ± 9.9e-06	3.74e-05 ± 7.5e-06
